# Measurements published in US20090130114A1 (Amgen, published 2009).
# T1: mouse WISE (mouse, UniProt Q9CQN4 24-206)
# T1 construct: Recombinant purified protein; also called muWISE; mWISE
# T1 sequence: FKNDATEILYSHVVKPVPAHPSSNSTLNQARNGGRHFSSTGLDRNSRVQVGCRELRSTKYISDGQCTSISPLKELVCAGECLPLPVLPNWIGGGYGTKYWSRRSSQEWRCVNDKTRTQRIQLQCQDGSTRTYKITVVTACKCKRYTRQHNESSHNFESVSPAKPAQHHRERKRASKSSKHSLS
# T2: human WISE (human, UniProt Q6X4U4 24-206)
# T2 construct: Recombinant, made in E. coli or mammalian cells; biotinylated in the ELISAs, amine-coupled to CM5 in Biacore; also called huWise; huWISE
# T2 sequence: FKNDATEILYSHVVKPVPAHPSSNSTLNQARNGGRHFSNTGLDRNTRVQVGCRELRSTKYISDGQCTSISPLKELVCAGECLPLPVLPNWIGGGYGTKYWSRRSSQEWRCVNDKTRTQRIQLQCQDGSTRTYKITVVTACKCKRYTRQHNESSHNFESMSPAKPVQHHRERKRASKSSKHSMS
# Key:
# [1] = biological target: T1, mouse WISE; assay: KinExA solution equilibrium, rmuWise-coated beads
# Description: (§1) Binding of muAbs with rhuWise and rmuWise were tested on KinExA. Azlactone beads (Pierce) was pre-coated with rhuWise/rmuWise at pH9.0 and blocked with ethanolamine, then further washed with sample buffer (0.1 mg/mL Heparin in BSA/P20/PBS solution). 10 pM and 100 pM of Ab-A, Ab-C and Ab-E were incubated with various concentrations (0.1 pM-3 nM) of rhuWise/rmuWise at room temperature for at least 10 hours before run through the rhuWise/rmuWise coated beads.
# (§2) The amount of the bead-bound muAbs were quantified by fluorescent (Cy5) labeled goat anti-mouse IgG (H+L) antibody (Jackson Immuno Research). The binding signal is proportional to the concentration of free muAbs at binding equilibrium. Equilibrium dissociation constant (Kd) was obtained from nonlinear regression of the competition curves using a two-curve one-site homogeneous binding model (KinExA™ Pro software).
# [2] = biological target: T2, human WISE; assay: KinExA solution equilibrium, rhuWise-coated azlactone beads
# Description: as §1, §2
# [3] = biological target: T3, T49 tryptic fragment of human WISE (human); assay: Biacore peptide competition, 3 nM antibody preincubated with 30 nM peptide
# T3 construct: Multiply truncated human WISE from tryptic digestion, isolated by HPLC; the two pieces are held together by cystine-knot disulfide bonds (C1-C5, C2-C6, C3-C7); also called T49 peptide
# Description: (§3) To identify which peptides compete with WISE for binding to the antibodies of the invention, rhuWise was immobilized on a CM5 surface with high density. 3 nM of mature antibodies Ab-A, Ab-C and Ab-E were pre-incubated with and without 30 nM peptides and huWise (as control), then injected over the huWise surfaces. As shown in FIGS. 9A and B both T49 and T56.1 peptides blocked the binding of the antibodies to huWISE.
# [4] = biological target: T4, T56.1 tryptic fragment of human WISE (human); assay: as above
# T4 construct: Multiply truncated human WISE from tryptic digestion, isolated by HPLC; the two pieces are held together by cystine-knot disulfide bonds; also called T56.1 peptide
# Description: as §3
# [5] = biological target: T2, human WISE; assay: ELISA, antibody coated, biotinylated human WISE titrated
# [6] = biological target: T3, T49 tryptic fragment of human WISE; assay: Biacore peptide competition (FIG. 9B)
# Description: as §3
# [7] = biological target: T4, T56.1 tryptic fragment of human WISE; assay: Biacore peptide competition (FIG. 9B)
# Description: as §3
# [8] = biological target: T2, human WISE; assay: assay not specified (IgG2 from transient transfection)
Binder,binding result [1],Kd [2] [pM],binding result [3],binding result [4],binding result [5],other results
"Ab-A (antibody, V domains shown, Murine monoclonal antibody from hybridoma, tested in its mature form; The entries may still carry a signal peptide; also called Antibody A; antibody A) VH: QIHLVQSGPELKKPGETVKISCKASGFSFTTYGMSWVKQAPGKGLKWMGWINTYSGVPTYADDFKGRFAFSLETSASTAYLQINNLKNEDTATYFCVRGREYYYGSGIAFWGQGTLVTVSA VL: DVVMTQTPLSLPVSLGDQASISCRSSQSLEHSNGNTYLHWYLQKPGQSPKLLIYKVSNRFSGVPDRFSGSGSGTDFTLKISRVEAEDLGVYFCSQSTHVPLTFGAGTKVELKR",binds,~2,binds,binds,,
"Ab-B (antibody, V domains shown, Humanized Ab-A, human kappa / human IgG2) VH: QVQLVQSGAEVKKPGASVKVSCKASGYTFTTYGMSWVRQAPGQGLEWMGWINTYSGVPTYADDFKGRFVFSLDTSVSTAYLQINSLKAEDTAVYYCARGREYYYGSGIAFWGQGTLVTVSS VL: DVVMTQSPLSLPVTLGQPASISCRSSQSLEHSNGNTYLHWYLQKPGQSPQLLIYKVSNRFSGVPDRFSGSGSGTDFTLKISRVEAEDVGVYFCSQSTHVPLTFGGGTKVEIKR",,,,,binds,
"Ab-G (antibody, human IgG2, kappa, V domains shown, Humanized Ab-A, human kappa / human IgG2) VH: QVQLVQSGAEVKKPGASVKVSCKASGYTFTTYGMSWVKQAPGQGLEWMGWINTYSGVPTYADDFKGRFVFSLDTSVSTAYLQINSLKAEDTAVYFCVRGREYYYGSGIAFWGQGTLVTVSS VL: DVVMTQSPLSLPVTLGQPASISCRSSQSLEHSNGNTYLHWYLQKPGQSPQLLIYKVSNRFSGVPDRFSGSGSGTDFTLKISRVEAEDVGVYFCSQSTHVPLTFGGGTKVEIKR",,,,,binds,
"Ab-D (antibody, V domains shown, Humanized Ab-C, human kappa / human IgG2) VH: QVQLVQSGAEVKKPGSSVKVSCKASGGTFSSTYISWVRQAPGQGLEWMGWIYAGTGGTRYNRKFTGRVTITADESTSTAYMELSSLRSEDTAVYYCAREGVDGWFTYWGQGTLVTVSS VL: DIQMTQSPSSLSASVGDRVTISCRASESVDNYGSSFMNWYQQKPGKAPKLLIYAASNQGSGVPSRFSGSGSGTDFTLTISSLQPEDFATYYCQQSKEVPYTFGQGTKLEIKR",,,,,binds,
"Ab-C (antibody, V domains shown, Murine monoclonal antibody from hybridoma, tested in its mature form; also called Antibody C; antibody C) VH: QGQMQQSGAELVKPGASVQLSCKTSGFTFSSTYISWLKQKPGQSLEWIAWIYAGTGGTRYNRKFTGKAQLTVDTSSSTAYMQFSSLTTEDSAIYYCAREGVDGWFTYWGQGTLVTVSA VL: not shown",binds,~4,binds,binds,,
"Ab-O (antibody, human IgG2, V domains shown, Human IgG2 heavy chain) VH: QVQLVQSGAEVKKPGSSVKVSCKASGGTFSSTYISWVRQAPGQGLEWMGWIYAGTGGTRYNRKFTGRVTITADESTSTAYMELSSLRSEDTAVYYCAREGVDGWFTYWGQGTLVTVSS VL: not shown",,,,,binds,
"Ab-E (antibody, mouse IgG1, kappa, V domains shown, Murine monoclonal antibody from hybridoma, tested in its mature form; polypeptide numbers 26 and 28 and the light/heavy assignment are inferred; also called Antibody E; antibody E) VH: QGQMQQSGAELVKPGASVKLSCKTSGFTFNSHYISWLKQKPGQTLEWIAWIYAGTGGTRYNQKFTGKAQLTVDTSSSTAYMQFSSLTTEDSAIYYCAREGVDGWFTYWGQGTLVTVSA VL: not shown",binds,~18,binds,binds,,
"Ab-P (antibody, V domains shown, also called Antibody P) VH: EVRLVESGGGLVQPGRSLKLSCAASGFPFSNYGMAWVRQAPTRGLEWVASITYDGSITFYRDSVKGRFTISRDNAKSTLYLQMDSLRSEDTATYYCTSSDTTDYYHGGFWFAYWGQGTLVTVSS VL: DIVLTQSPALAVSLGQRATLSCRASQSVSISGHNLMHWYQQKPGQQPKLLIYRASNLPSGIPARFSGSGSGTGFTLTINPVQADDIATYYCQQSRESPWTFGGGTTLELKR",,,,,,binding result [6]: binds; binding result [7]: binds
"light chain of SEQ ID NO: 120 paired with the heavy chain of SEQ ID NO: 24 (antibody, human IgG2, kappa, V domains shown) VH: QVQLVQSGAEVKKPGSSVKVSCKASGGTFSSTYISWVRQAPGQGLEWMGWIYAGTGGTRYNRKFTGRVTITADESTSTAYMELSSLRSEDTAVYYCAREGVDGWFTYWGQGTLVTVSS VL: DIQMTQSPATLSLSPGERATLSCRASRSVSSNLAWYQQKPGRAPRLLMFGASTRATGVPARFSGSGSGTEFTLTISSLQSEDVATYYCQHDNELPLTFGGGTKVELKR",,,,,,binding result [8]: binds
